# Assay results: publication PMC3554283 (Diabetes Care, 2013)
# Experiments:
# [1] = Serum insulin pharmacokinetics after subcutaneous injection; format: in vivo, human; conditions: 0.15 units/kg s.c., 14 healthy volunteers
# [2] = tested on: healthy volunteers; assay: Eight-hour euglycemic glucose clamp; format: in vivo, human; conditions: mean ± SD; 0.15 units/kg s.c.; 14 healthy volunteers; 8-h euglycemic clamp
substance,measurement,setting,value
insulin glulisine,onset (early t50%) of exposure,[1],21 min
same,tmax,[1],1.33 h
same,onset of action (early T50% GIRmax),[2],47 ± 19 min
same,time to 50% glucose infused,[2],183 ± 34 min
